Patent US12545899B2, “Luciferase enzymes for use with thermostable luciferins in bioluminescent assays” (Promega Corporation, priority 2018, dated 2026)
Where a chain is given by its changes, count along the chain named. Numbers in names are those of the source.

B1: C2158H1: SEQ ID NO: 44; H244W+T344A+I396K+S193A+N228D+L305F+S306P+I109V+I230F (protein)
chain: MADKNILYGPEPFYPLEDGTAGEQMFDALSRYAAIPGCIALTNAHTKENVLYEEFLKLSCRLAESFKKYGLKQNDTIAVCSENSLQFFLPVIASLYLGIIVAPVNDKYVERELIHSLGIVKPRIVFCSKNTFQKVLNVKSKLKSIETIIILDLNEDLGGYQCLNNFISQNSDSNLDVKKFKPYSFNRDDQVAAIMFSSGTTGLPKGVMLTHKNIVARFSIAKDPTFGDAFNPTSAILTVIPFHWGFGMMTTLGYFTCGFRVVLMHTFEEKLFLQSLQDYKVESTLLVPTLMAFLAKSALVEKYDFPHLKEIASGGAPLSKEIGEMVKKRFKLNFVRQGYGLTEATSAVLITPKGDAKPGSTGKIVPLHAVKVVDPTTGKILGPNEPGELYFKGPMKMKGYYNNEEATKAIIDNDGWLRSGDIAYYDNDGHFYIVDRLKSLIKYKGYQVAPAEIEGILLQHPYIVDAGVTGIPDEAAGELPAAGVVVQTGKYLNEQIVQDYVASQVSTAKWLRGGVKFLDEIPKGSTGKIDRKVLRQMLEKHTNGHHHHHHHH
B2: C2158H3: SEQ ID NO: 46; H244W+T344A+I396K+S193A+N228D+L305F+S306P+I109V+N154S+V261A+I410M (protein)
chain: B1 chain with N154S, F230I, V261A, I410M
B3: C2262C2: SEQ ID NO: 47; H244W+T344A+I396K+S193A+N228D+L305F+S306P+I109V+Y183C+V261A+T289S (protein)
chain: B1 chain with Y183C, F230I, V261A, T289S
B4: C2261E4: SEQ ID NO: 50; H244W+T344A+I396K+S193A+N228D+L305F+S306P+I109V+I230F (protein)
chain: B1 chain
B5: C2149A12: SEQ ID NO: 49; H244W+T344A+I396K+S193A+N228D+L305F+S306P+I109V+F246Y+V261A (protein)
chain: B1 chain with F230I, F246Y, V261A
B6: C2159F8: SEQ ID NO: 48; H244W+T344A+I396K+S193A+N228D+L305F+S306P+I109V+Y32C (protein)
chain: B1 chain with Y32C, F230I

test: Luminescence of ATG-3707 variants (second round epPCR) with CS0333; type: biochemical; conditions: BrightGlo buffer, 25° C., 3 min
Description: Reagent compositions included CS0333 diluted from 20 mM to 2 mM in reaction buffer with 2 mM ATP. […] Reactions were incubated at 25° C. for 3 min, and luminescence was read and then normalized to ATG-3707 activity tested in parallel.

| Molecule | Luminescence (RLU) BrightGlo |
| --- | --- |
| B1 | 3760160 RLU |
| B2 | 3892740 RLU |
| B3 | 3874490 RLU |
| B4 | 3249560 RLU |
| B5 | 4701610 RLU |
| B6 | 4599710 RLU |

same assay, conditions: BrightGlo buffer, normalized to ATG-3707

| Molecule | Normalized Luminescence BrightGlo |
| --- | --- |
| B1 | 0.97 |
| B2 | 1.00 |
| B3 | 1.00 |
| B4 | 0.84 |
| B5 | 1.21 |
| B6 | 1.18 |

same assay, conditions: CellTiterGlo buffer, 25° C., 3 min

| Molecule | Luminescence (RLU) CellTiterGlo |
| --- | --- |
| B1 | 778990 RLU |
| B2 | 648483 RLU |
| B3 | 738328 RLU |
| B4 | 710098 RLU |
| B5 | 479613 RLU |
| B6 | 650068 RLU |

same assay, conditions: CellTiterGlo buffer, normalized to ATG-3707

| Molecule | Normalized Luminescence CellTiterGlo |
| --- | --- |
| B1 | 1.21 |
| B2 | 1.01 |
| B3 | 1.15 |
| B4 | 1.10 |
| B5 | 0.74 |
| B6 | 1.01 |

same assay, conditions: Detection Reagent buffer, 25° C., 3 min

| Molecule | Luminescence (RLU) Detection Reagent |
| --- | --- |
| B1 | 6098750 RLU |
| B2 | 5916440 RLU |
| B3 | 5661740 RLU |
| B4 | 5375380 RLU |
| B5 | 5480500 RLU |
| B6 | 5611680 RLU |

same assay, conditions: Detection Reagent buffer, normalized to ATG-3707

| Molecule | Normalized Luminescence Detection Reagent |
| --- | --- |
| B1 | 1.18 |
| B2 | 1.15 |
| B3 | 1.10 |
| B4 | 1.04 |
| B5 | 1.06 |
| B6 | 1.09 |
